Experimental data reported in patent US20250197490A1 (HBM ALPHA THERAPEUTICS, published 2025).
Where a chain is given by its changes, count along the chain named. “And” between values parts separate entries of the source, which are not always exact repeats. Equal entries are not always repeated. Where two headings read alike, the source gives them in different places. Each block holds one binder with its values, some of them ahead of it.

What was measured:
[1] = target: T1, corticotropin-releasing hormone (CRH) peptide (human and mouse, UniProt P01143 145-185 (rat entry), not fully specified); test: cell-based or functional assay
T1 peptide: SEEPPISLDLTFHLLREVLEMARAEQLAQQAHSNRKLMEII

[2] = target: T1, corticotropin-releasing hormone (CRH) …; test: cell-based or functional assay

hCRHR1-Luc 0.5 nM CRH IC50 [1]: 0.139 nM and 0.231 nM
B1: PR302341 (antibody, human IgG1, kappa, V domains shown)
VH: EVQLQQSGPELVKPGASVKMSCKASGYTFTDYFMKWVKQSHGESLEWIGVINPNNGDIFYNQKFKGKATLTVDKSSSTAFMQLNSLTSEDSAVYSCARGTDRALFAYWGQGTLVAVSA
VL: DVLMTQTPLSLPVSLGDQASISCRSGQSIVHSDGNTYLEWYLQRPGQSPRLLIYKVSNRFSGVPDRFSGSGSGTDFTLKISRVGAEDLGIYYCFQGSHIPWTFGGGTKLEVKR

hCRHR1-Luc 0.5 nM CRH IC50 [1]: 0.162 nM
B2: PR302341-20 (antibody, human IgG1, kappa, V domains shown)
VH: QVQLVQSGAEVKKPGASVKVSCKASGYTFTDYFMKWVRQAPGQRLEWMGVINPNNGDIFYNQKFKGRVTITRDTSASTAYMELSSLRSEDTAVYYCARGTDRALFAYWGQGTLVTVSS
VL: B1 VL with L3V, T7S, S14T, D17Q, Q18P, L42Q, G84E, I90V, L109V, V111I

hCRHR1-Luc 0.5 nM CRH IC50 [1]: 0.043 nM
B3: PR302341-23 (antibody, human IgG1, kappa, V domains shown)
VH: B2 VH with R44G, I70M, R72V, T74K, A76I, S85R, E89D
VL: B1 VL with L3V, T7S, S14T, D17Q, Q18P, L42Q, G84E, I90V, L109V, V111I

hCRHR1-Luc 0.5 nM CRH IC50 [1]: 0.075 nM
B4: PR302341-14 (antibody, human IgG1, kappa, V domains shown)
VH: B2 VH with R44G, I70M, R72V, T74K, A76T
VL: B1 VL

hCRHR1-Luc 0.5 nM CRH IC50 [1]: 0.177 nM
B5: PR302341-21 (antibody, human IgG1, kappa, V domains shown)
VH: B2 VH with R72V, T74K
VL: B1 VL with L3V, T7S, S14T, D17Q, Q18P, L42Q, G84E, I90V, L109V, V111I

hCRHR1-Luc 0.5 nM CRH IC50 [1]: 0.73 nM
B6: PR302341-5 (antibody, human IgG1, kappa, V domains shown)
VH: B1 VH
VL: DIVMTQTPLSLSVTPGQPASISCRSGQSIVHSDGNTYLEWYLQKPGQSPQLLIYKVSNRFSGVPDRFSGSGSGTDFTLKISRVEAEDVGVYYCFQGSHIPWTFGGGTKVEIKR

hCRHR1-Luc 0.5 nM CRH IC50 [1]: 0.225 nM
B7: PR302341-16 (antibody, human IgG1, kappa, V domains shown)
VH: B2 VH with R72V, T74K
VL: B1 VL

hCRHR1-Luc 0.5 nM CRH IC50 [1]: 0.363 nM
B8: PR302341-6 (antibody, human IgG1, kappa, V domains shown)
VH: B1 VH
VL: B6 VL with I2V, V88L

hCRHR1-Luc 0.5 nM CRH IC50 [1]: 0.124 nM
B9: PR302341-15 (antibody, human IgG1, kappa, V domains shown)
VH: B2 VH
VL: B1 VL

hCRHR1-Luc 0.5 nM CRH IC50 [1]: 0.169 nM
B10: PR302341-18 (antibody, human IgG1, kappa, V domains shown)
VH: B2 VH with R44G, I70M, R72V, T74K, A76I, S85R, E89D
VL: B1 VL

hCRHR1-Luc 0.5 nM CRH IC50 [1]: 0.165 nM
B11: PR302341-8 (antibody, human IgG1, kappa, V domains shown)
VH: B2 VH with R44G, I70M, R72V, T74K, A76T
VL: B6 VL with I2V, T7S, S12P, P15L, L42Q, K44R, Q50R, V88L

hCRHR1-Luc 0.5 nM CRH IC50 [1]: 0.128 nM
B12: PR302341-3 (antibody, human IgG1, kappa, V domains shown)
VH: B1 VH
VL: B6 VL with L11S, S12P, P15L, Y41L, L42Q, K44R, S48P, Q50R, S72A

hCRHR1-Luc 0.5 nM CRH IC50 [1]: 0.168 nM
B13: PR302341-2 (antibody, human IgG1, kappa, V domains shown)
VH: B1 VH
VL: B6 VL with I2V, T7S, S12P, P15L, L42Q, K44R, Q50R, V88L

hCRHR1-Luc 0.5 nM CRH IC50 [1]: 0.124 nM
B14: PR302341-13 (antibody, human IgG1, kappa, V domains shown)
VH: B2 VH with R44G, I70M, A76T, A79V
VL: B1 VL

hCRHR1-Luc 0.5 nM CRH IC50 [1]: 0.104 nM
B15: PR302341-17 (antibody, human IgG1, kappa, V domains shown)
VH: B2 VH with R44G, I70M, A76I, S85R, E89D
VL: B1 VL

hCRHR1-Luc 0.5 nM CRH IC50 [1]: 0.107 nM
B16: PR302341-4 (antibody, human IgG1, kappa, V domains shown)
VH: B1 VH
VL: B6 VL with I2V, L11S, S12P, P15L, L42Q, K44R, S48P, Q50R, S72A, V88L

hCRHR1-Luc 0.5 nM CRH IC50 [1]: 0.243 nM
B17: PR302341-22 (antibody, human IgG1, kappa, V domains shown)
VH: B2 VH with R44G, I70M, A76I, S85R, E89D
VL: B6 VL with I2V, T7S, S12P, P15L, L42Q, K44R, Q50R, V88L

hCRHR1-Luc 0.5 nM CRH IC50 [1]: 0.397 nM
B18: PR302341-1 (antibody, human IgG1, kappa, V domains shown)
VH: B1 VH
VL: B6 VL with I2V, T7S, S12P, P15L, Y41F, L42Q, K44R, Q50R, L51R

hCRHR1-Luc 0.5 nM CRH IC50 [1]: 0.121 nM
B19: PR302341-19 (antibody, human IgG1, kappa, V domains shown)
VH: B2 VH with R44G, I70M, A76T, A79V
VL: B6 VL with I2V, T7S, S12P, P15L, L42Q, K44R, Q50R, V88L

hCRHR1-Luc 0.5 nM CRH IC50 [2]: 1.36 nM
B20: PR302334-27 (antibody, human IgG1, kappa, V domains shown)
VH: EVQLVESGGGLVQPGGSLRLSCAASGFTFSTYAMSWVRQAPGKGLEWVASIRSGGTTYYPDSVKGRFTISRDNSKNSLYLQMNSLRAEDTAVYYCTRGIDWGQGTTVTVSS
VL: DIQMTQSSLSASVSLGDRVTITCKASQSVNNDVAWYQQKPGKAPRLLIYYASNRYTGVPSRFSGSGSGTDFTFTISSLQPEDLATYFCQQDYSSWTFGGGTKVEIKR

hCRHR1-Luc 0.5 nM CRH IC50 [2]: 0.404 nM
B21: PR302334-6 (antibody, human IgG1, kappa, V domains shown)
VH: EVKLVESGGGLVKPGGSLKLSCAASGFTFSTYAMSWVRQTPEKRLEWVASIRSGGTTYYPDSVKGRFTISRDNARNILYLQMSSLRSEDTAIYYCTRGIDWGQGTLVTVSA
VL: B20 VL

hCRHR1-Luc 0.5 nM CRH IC50 [2]: 0.325 nM
B22: PR302334-5 (antibody, human IgG1, kappa, V domains shown)
VH: B21 VH
VL: B20 VL with L83I, F87Y

hCRHR1-Luc 0.5 nM CRH IC50 [2]: 0.468 nM
B23: PR302334-14 (antibody, human IgG1, kappa, V domains shown)
VH: B20 VH with S77T
VL: NIVMTQTPKFLLVSAGDRITITCKASQSVNNDVAWYQQKPGQSPKLLIYYASNRYTGVPDRFTGSGYGTDFTFTISTVQAEDLAVYFCQQDYSSWTFGGGTNLEIKR

hCRHR1-Luc 0.5 nM CRH IC50 [2]: 0.996 nM
B24: PR302334-7 (antibody, human IgG1, kappa, V domains shown)
VH: B20 VH with S77T
VL: EIVMTQSPATLSVSPGERATLSCKASQSVNNDVAWYQQKPGQAPRLLIYYASNRYTGIPARFSGSGSGTEFTLTISSLQSEDFAVYYCQQDYSSWTFGGGTKVEIKR

hCRHR1-Luc 0.5 nM CRH IC50 [1]: 0.23 nM
B25: PR302341-7 (antibody, human IgG1, kappa, V domains shown)
VH: B2 VH with R44G, I70M, R72V, T74K, A76T
VL: B6 VL with I2V, T7S, S12P, P15L, Y41F, L42Q, K44R, Q50R, L51R

hCRHR1-Luc 0.5 nM CRH IC50 [1]: 0.467 nM
B26: PR302341-11 (antibody, human IgG1, kappa, V domains shown)
VH: B2 VH with R44G, I70M, R72V, T74K, A76T
VL: B6 VL

hCRHR1-Luc 0.5 nM CRH IC50 [1]: 0.25 nM
B27: PR302341-12 (antibody, human IgG1, kappa, V domains shown)
VH: B2 VH with R44G, I70M, R72V, T74K, A76T
VL: B6 VL with I2V, V88L

hCRHR1-Luc 0.5 nM CRH IC50 [1]: 0.234 nM
B28: PR302341-9 (antibody, human IgG1, kappa, V domains shown)
VH: B2 VH with R44G, I70M, R72V, T74K, A76T
VL: B6 VL with L11S, S12P, P15L, Y41L, L42Q, K44R, S48P, Q50R, S72A

hCRHR1-Luc 0.5 nM CRH IC50 [1]: 0.711 nM
B29: PR302341-25 (antibody, human IgG1, kappa, V domains shown)
VH: B2 VH with R72V, T74K
VL: B6 VL with I2V, V88L

hCRHR1-Luc 0.5 nM CRH IC50 [1]: 0.273 nM
B30: PR302341-26 (antibody, human IgG1, kappa, V domains shown)
VH: B2 VH with R44G, I70M, R72V, T74K, A76I, S85R, E89D
VL: B6 VL with I2V, L11S, S12P, P15L, L42Q, K44R, S48P, Q50R, S72A, V88L

hCRHR1-Luc 0.5 nM CRH IC50 [1]: 0.11 nM
B31: PR302341-10 (antibody, human IgG1, kappa, V domains shown)
VH: B2 VH with R44G, I70M, R72V, T74K, A76T
VL: B6 VL with I2V, L11S, S12P, P15L, L42Q, K44R, S48P, Q50R, S72A, V88L

hCRHR1-Luc 0.5 nM CRH IC50 [1]: 0.518 nM
B32: PR302341-27 (antibody, human IgG1, kappa, V domains shown)
VH: B2 VH with R44G, I70M, R72V, T74K, A76I, S85R, E89D
VL: B6 VL with I2V, V88L

hCRHR1-Luc 0.5 nM CRH IC50 [1]: 0.192 nM
B33: PR302341-24 (antibody, human IgG1, kappa, V domains shown)
VH: B2 VH with R72V, T74K
VL: B6 VL with I2V, L11S, S12P, P15L, L42Q, K44R, S48P, Q50R, S72A, V88L

hCRHR1-Luc 0.5 nM CRH IC50 [2]: 0.624 nM
B34: PR302334-1 (antibody, human IgG1, kappa, V domains shown)
VH: B21 VH
VL: B24 VL

hCRHR1-Luc 0.5 nM CRH IC50 [2]: 0.553 nM
B35: PR302334-4 (antibody, human IgG1, kappa, V domains shown)
VH: B21 VH
VL: DIVMTQSPDSLAVSLGERATINCKASQSVNNDVAWYQQKPGQPPRLLIYYASNRYTGVPDRFSGSGSGTDFTLTISSLQAEDLAVYFCQQDYSSWTFGGGTKVEIKR

hCRHR1-Luc 0.5 nM CRH IC50 [2]: 0.597 nM
B36: PR302334-2 (antibody, human IgG1, kappa, V domains shown)
VH: B21 VH
VL: B24 VL with F83L, Y87F

hCRHR1-Luc 0.5 nM CRH IC50 [2]: 0.542 nM
B37: PR302334-3 (antibody, human IgG1, kappa, V domains shown)
VH: B21 VH
VL: B35 VL with L83V, F87Y
